Test results taken from article PMC6627510, “The Role of a Key Amino Acid Position in Species-Specific Proteinaceous dUTPase Inhibition” (Biomolecules, 2019).
pKi: −log10 of the molar value.

Assays:
[1] = target: Escherichia coli dUTPase Q93H mutant (Escherichia coli); assay: crystal structure; EcDUT^Q93H with 5 mM dUPNPP; hanging drop, 0.1 M TRIS, 18-33.75 % PEG 3350, 400 mM NaAc, pH 7.5, 295 K
[2] = target: Escherichia coli dUTPase Q93H mutant (Escherichia coli)
[3] = target: Escherichia coli dUTPase Q93R mutant (Escherichia coli)
[4] = target: Escherichia coli dUTPase Q93H mutant (Escherichia coli); assay: steady-state enzyme inhibition; 50 nM dUTPase, 0-400 nM Stl, 5 min pre-incubation at 20 °C, 30 µM dUTP; 1 mM HEPES, 150 mM KCl, 5 mM MgCl2, 40 µM phenol red, pH 7.5; quadratic equation fitted, K is the Ki (IC50)
[5] = target: Escherichia coli dUTPase Q93R mutant (Escherichia coli); assay: as above

Substance: Escherichia coli dUTPase Q93H mutant (enzyme)
- stoichiometry N [1]: 3

Substance: Stl_(SaPIbov1) protein (staphylococcal repressor) (natural protein)
- decrease of the steady-state velocity of dUTPase on Stl addition [2]: 58%
- decrease of the steady-state velocity of dUTPase on Stl addition [3]: 47%
- pKi [4]: 8.32
- pKi [5]: 8.23
